Activity data for 49 sequences are collected here from US20220290188.

Common to all, as to assay: cell_activity
Series [1] deals with TL8181 TALE-KRAB (synthetic). The settings on record: TIM3, day 2.
The subject of series [2] is TL11110 TALE-KRAB (synthetic). The settings on record: PD-1, day 2.
Series [3] relates to TL11126 TALE-KRAB (synthetic). The settings on record: PD-1, day 2.
For series [4], the system named is TL11102 TALE-KRAB (synthetic). The settings on record: PD-1, day 2.
Series [5] deals with TL11088 TALE-KRAB (synthetic). The settings on record: PD-1, day 2.
For series [6], the system named is TL11877 TALE-KRAB (synthetic). The settings on record: PD-1, day 2; table prints SEQ 63 but bases match SEQ 18.
For series [7], the system named is TL11131 TALE-KRAB (synthetic). Conditions: PD-1, day 2.
Series [8] concerns TL11112 TALE-KRAB (synthetic). Conditions: PD-1, day 2.
Series [9] concerns TL11105 TALE-KRAB (synthetic). The settings on record: PD-1, day 2.
Series [10] has as its system TL11087 TALE-KRAB (synthetic). Conditions: PD-1, day 2.
The test system of series [11] is TL11132 TALE-KRAB (synthetic). The settings on record: PD-1, day 2.
Series [12] has as its system TL11133 TALE-KRAB (synthetic). The settings on record: PD-1, day 2.
Series [13] has as its system TL11124 TALE-KRAB (synthetic). Conditions: PD-1, day 2.
Series [14] deals with TL11092 TALE-KRAB (synthetic). The settings on record: PD-1, day 2.
In series [15] the test system is TL11127 TALE-KRAB (synthetic). Conditions: PD-1, day 2.
Series [16] concerns TL8241 TALE-KRAB (synthetic). The settings on record: LAG3, day 2.
Series [17] has as its system TL11879 TALE-KRAB (synthetic). The settings on record: PD-1, day 2.
For series [18], the system named is TL11130 TALE-KRAB (synthetic). The settings on record: PD-1, day 2.
The test system of series [19] is TL11876 TALE-KRAB (synthetic). The settings on record: PD-1, day 2.
The subject of series [20] is TL8201 TALE-KRAB (synthetic). Conditions: TIM3, day 2.
Series [21] relates to TL11875 TALE-KRAB (synthetic). Conditions: PD-1, day 2.
The subject of series [22] is TL11099 TALE-KRAB (synthetic). The settings on record: PD-1, day 2.
The test system of series [23] is TL8222 TALE-KRAB (synthetic). Conditions: LAG3, day 2.
The test system of series [24] is TL8220 TALE-KRAB (synthetic). The settings on record: LAG3, day 2.
Series [25] relates to TL11129 TALE-KRAB (synthetic). The settings on record: PD-1, day 2.
For series [26], the system named is TL11128 TALE-KRAB (synthetic). The settings on record: PD-1, day 2.
Series [27] concerns TL11103 TALE-KRAB (synthetic). The settings on record: PD-1, day 2.
The subject of series [28] is TL11119 TALE-KRAB (synthetic). The settings on record: PD-1, day 2.
The subject of series [29] is TL11096 TALE-KRAB (synthetic). The settings on record: PD-1, day 2.
Series [30] deals with TL8188 TALE-KRAB (synthetic). Conditions: TIM3, day 2.
Series [31] concerns TL11084 TALE-KRAB (synthetic). The settings on record: PD-1, day 2.
Series [32] has as its system TL11108 TALE-KRAB (synthetic). The settings on record: PD-1, day 2.
Series [33] relates to TL11093 TALE-KRAB (synthetic). The settings on record: PD-1, day 2.
The test system of series [34] is TL8214 TALE-KRAB (synthetic). The settings on record: LAG3, day 2.
In series [35] the test system is TL11094 TALE-KRAB (synthetic). The settings on record: PD-1, CD3+ T cells, day 2.
Series [36] concerns TL11104 TALE-KRAB (synthetic). Conditions: PD-1, day 2.
Series [37] has as its system TL11101 TALE-KRAB (synthetic). Conditions: PD-1, day 2.
Series [38] concerns TL8216 TALE-KRAB (synthetic). Conditions: LAG3, day 2.
In series [39] the test system is TL9598 TALE-KRAB (synthetic). Conditions: LAG3, day 2.
In series [40] the test system is pAL040 TALE-KRAB (synthetic). The settings on record: PD-1, day 2.
The subject of series [41] is TL9342 TALE-KRAB (synthetic). Conditions: TIM3, day 2.
The subject of series [42] is TL8189 TALE-KRAB (synthetic). The settings on record: TIM3, day 2.
For series [43], the system named is TL9337 TALE-KRAB (synthetic). Conditions: TIM3, day 2.
For series [44], the system named is TL9606 TALE-KRAB (synthetic). The settings on record: LAG3, day 2.
Series [45] concerns pAL043 (PD02) TALE-KRAB (synthetic). Conditions: PD-1, day 2.
For series [46], the system named is TL9339 TALE-KRAB (synthetic). The settings on record: TIM3, day 2.
Series [47] has as its system TL9820 TALE-KRAB (synthetic). Conditions: LAG3, day 2.
Series [48] has as its system TL11106 TALE-KRAB (synthetic). The settings on record: PD-1, day 2.
In series [49] the test system is TL9717 TALE-KRAB (synthetic). The settings on record: LAG3, day 2.

With “ACTTCTTCCAACTGT (double strand) [TL8181 site]”, the activity in series [1] was greater than 50 % repression.
For “CAACCTGACCTGGGACAGTT (double strand) [TL11110 site]”, the activity in series [2] was greater than 80 % repression.
Turning to “CACTCTCGCCCACGTGGAT (double strand) [TL11126 site]”, in [3], the activity is greater than 50 % repression.
In [4], “CCACTGCTCAGGCGGAGGT (double strand) [TL11102 site]” had an activity greater than 50 % repression.
Sequence “CCCACAGGCGCCCTGG (double strand) [TL11088 site]” yielded an activity in [5] greater than 50 % repression.
In the case of “CCCAGGTCAGGTTGAAG (double strand) [TL11877 site]”, the activity in series [6] is greater than 80 % repression.
As to “CCCCCAGCACTGCCTCT (double strand) [TL11131 site]”, the activity in series [7] was greater than 50 % repression.
Turning to “CCCTTCAACCTGACCT (double strand) [TL11112 site]”, the activity in series [8] is greater than 80 % repression.
In turn, “CCCTTCCGCTCACCTCCGC (double strand) [TL11105 site]” returned an activity in [9] greater than 80 % repression.
On to “CCTCCACATCCACGTGGGC (double strand) [TL11087 site]”, for which, in series [10], the activity was greater than 50 % repression.
Sequence “CCTCCCCCAGCACTGC (double strand) [TL11132 site]” displayed an activity in [11] greater than 80 % repression.
Regarding “CCTCCCCCAGCACTGCC (double strand) [TL11133 site]”, in [12], the activity is greater than 80 % repression.
For “CTCGCCCACGTGGATGTGG (double strand) [TL11124 site]”, the activity in series [13] was greater than 50 % repression.
In the case of “CTGCATGCCTGGAGCAG (double strand) [TL11092 site]”, in series [14], the activity is greater than 50 % repression.
As for “CTGTCACTCTCGCCCACGT (double strand) [TL11127 site]”, in series [15], the activity is greater than 50 % repression.
Sequence “CTGTTCCCTGGGACACCCCC (double strand) [TL8241 site]” gave an activity in series [16] greater than 50 % repression.
In series [17], “CTTCCTCCACATCCACG (double strand) [TL11879 site]” registered an activity greater than 50 % repression.
“GACAGAGGCAGTGCTGG (double strand) [TL11130 site]” yielded an activity in series [18] greater than 50 % repression.
For “GACCTGGGACAGTTTCC (double strand) [TL11876 site]”, the activity in series [19] is greater than 80 % repression.
In series [20], “GAGAAAATTGTATTAGAT (double strand) [TL8201 site]” had an activity greater than 50 % repression.
With “GCAGATCCCACAGGCGC (double strand) [TL11875 site]”, the activity in [21] was greater than 80 % repression.
For the sequence “GCCGCCTTCTCCACT (double strand) [TL11099 site]”, in series [22], the activity is greater than 80 % repression.
On to “GCCGTTCTGCTGGTCT (double strand) [TL8222 site]”, for which the activity in series [23] is greater than 80 % repression.
On to “GCCGTTCTGCTGGTCTCT (double strand) [TL8220 site]”, for which, in series [24], the activity was greater than 80 % repression.
As to “GCCTCTGTCACTCTCG (double strand) [TL11129 site]”, the activity in series [25] is greater than 80 % repression.
As to “GCCTCTGTCACTCTCGCCC (double strand) [TL11128 site]”, the activity in series [26] was greater than 80 % repression.
The sequence “GCTCAGGCGGAGGTGAG (double strand) [TL11103 site]” yielded an activity in series [27] greater than 50 % repression.
In series [28], “GCTCCCGCCCCCTCTTCCT (double strand) [TL11119 site]” returned an activity greater than 50 % repression.
“GGAGCAGCCCCACCAGAGT (double strand) [TL11096 site]” displayed an activity in series [29] greater than 50 % repression.
“GGCAGTGTTACTATAA (double strand) [TL8188 site]” had an activity in [30] greater than 80 % repression.
In series [31], “GGCCAGGGCGCCTGT (double strand) [TL11084 site]” returned an activity greater than 50 % repression.
“GGGACAGTTTCCCTTC (double strand) [TL11108 site]” had an activity in series [32] greater than 80 % repression.
Regarding “GGGGCTGCTCCAGGCATGC (double strand) [TL11093 site]”, the activity in series [33] was greater than 50 % repression.
“GGTCTCTGGGCCTTCA (double strand) [TL8214 site]” displayed an activity in [34] greater than 80 % repression.
In series [35], “GGTGGGGCTGCTCCAGG (double strand) [TL11094 site]” displayed an activity greater than 80 % repression.
The sequence “TCCGCTCACCTCCGCCTGA (double strand) [TL11104 site]” showed an activity in [36] greater than 80 % repression.
The sequence “TCTCCACTGCTCAGGCG (double strand) [TL11101 site]” had an activity in series [37] greater than 80 % repression.
In series [38], “TCTGCTGGTCTCTGGGCC (double strand) [TL8216 site]” had an activity greater than 80 % repression.
As for “TCTGCTGGTCTCTGGGCCTTC (double strand) [TL9598 site]”, the activity in series [39] was greater than 80 % repression.
“TCTGTCACTCTCGCCCAC (double strand) [pAL040 site]”: the activity in series [40] is greater than 80 % repression.
In series [41], “TGCCACACTACACACAT (double strand) [TL9342 site]” returned an activity greater than 80 % repression.
Consider “TGCCAGTGATTCTTATAGT (double strand) [TL8189 site]”, for which, in series [42], the activity is greater than 80 % repression.
In turn, “TGGCAATCAGACACCCGGGTG (double strand) [TL9337 site]” came in with an activity in [43] greater than 80 % repression.
Regarding “TGGTCTCTGGGCCTTCACCC (double strand) [TL9606 site]”, the activity in [44] was greater than 80 % repression.
With “TGGTGGGGCTGCTCC (double strand) [pAL043 site]”, the activity in series [45] was greater than 80 % repression.
In turn, “TGTCTGATTGCCAGTGATT (double strand) [TL9339 site]” had an activity in series [46] greater than 80 % repression.
“TTCACCCCTGTGCCCGGCCTTCC (double strand) [TL9820 site]”: the activity in series [47] was greater than 80 % repression.
“TTCCCTTCCGCTCACC (double strand) [TL11106 site]” had an activity in series [48] greater than 80 % repression.
In turn, “TTTGCTCTGTCTGCTC (double strand) [TL9717 site]” displayed an activity in series [49] greater than 80 % repression.
